Source: US20250145720A1
pKd: −log10 of the molar value.

How the values were obtained:
[1] = target: human complement component C1q (human) (UniProt P02745); assay: FACS, C1q on antibody-opsonized Daudi cells, ranking table
[2] = target: human complement component C1q (human) (UniProt P02745); assay: FACS, C1q on antibody-opsonized Daudi cells, Exp. 8
[3] = target: human complement component C1q (human) (UniProt P02745); assay: FACS, C1q on antibody-opsonized Daudi cells, Exp. 9
[4] = target: human complement component C1q (human) (UniProt P02745); assay: cell-based or functional assay
[5] = target: human complement component C1q (human) (UniProt P02745); assay: FACS, C1q on antibody-opsonized Daudi cells, Exp. 7
[6] = target: human complement component C1q (human) (UniProt P02745); assay: FACS, C1q on antibody-opsonized Daudi cells, average (row shifted one column to the left)
[7] = target: human complement component C1q (human) (UniProt P02745); assay: FACS, C1q on antibody-opsonized Daudi cells, Exp. 10
[8] = target: human complement component C1q (human) (UniProt P02745); assay: FACS, C1q on antibody-opsonized Daudi cells, Exp. 6; no reliable fit, too weak binding
[9] = target: human complement component C1q (human) (UniProt P02745); assay: FACS, C1q on antibody-opsonized Daudi cells, Exp. 11; no reliable fit, too weak binding
[10] = target: human complement component C1q (human) (UniProt P02745); assay: FACS, C1q on antibody-opsonized Daudi cells, ranking table; no reliable fit
[11] = target: human complement component C1q (human) (UniProt P02745); assay: FACS, C1q on antibody-opsonized Daudi cells, average; no reliable fit, too weak binding
[12] = target: human complement component C1q (human) (UniProt P02745); assay: FACS, C1q on antibody-opsonized Daudi cells, Exp. 5; no reliable fit, too weak binding

Chain of human complement component C1q (human) (P02745 23-245 limits assumed, chain 1 of 3): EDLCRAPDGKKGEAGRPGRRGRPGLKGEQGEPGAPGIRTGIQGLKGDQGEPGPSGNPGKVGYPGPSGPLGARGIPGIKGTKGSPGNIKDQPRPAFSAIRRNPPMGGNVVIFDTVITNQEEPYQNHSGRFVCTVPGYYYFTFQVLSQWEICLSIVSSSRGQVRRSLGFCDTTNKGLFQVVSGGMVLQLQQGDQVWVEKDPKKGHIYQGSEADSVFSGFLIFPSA
Chain of human complement component C1q (human) (P02746 28-253 limits assumed, chain 2 of 3, further chain): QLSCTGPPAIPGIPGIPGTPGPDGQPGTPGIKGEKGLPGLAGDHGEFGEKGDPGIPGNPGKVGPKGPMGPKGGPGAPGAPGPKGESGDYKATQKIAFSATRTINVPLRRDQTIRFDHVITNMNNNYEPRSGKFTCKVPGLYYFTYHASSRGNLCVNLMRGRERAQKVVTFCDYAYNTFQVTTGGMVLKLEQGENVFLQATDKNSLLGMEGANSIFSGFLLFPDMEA
Chain of human complement component C1q (human) (P02747 29-245 limits assumed, chain 3 of 3, further chain): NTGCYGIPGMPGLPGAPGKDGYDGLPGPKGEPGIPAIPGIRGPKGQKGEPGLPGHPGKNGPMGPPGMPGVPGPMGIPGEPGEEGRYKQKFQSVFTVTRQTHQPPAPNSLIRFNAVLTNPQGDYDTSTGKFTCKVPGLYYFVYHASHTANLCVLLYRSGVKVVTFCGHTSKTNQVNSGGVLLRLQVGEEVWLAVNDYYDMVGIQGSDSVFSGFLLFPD

Row | Substance | pKd [1] | pKd [2] | pKd [3] | CH50 (C1q concentration giving 50% lysis), CDC on Raji cells in C1q-depleted serum [4] [µg/mL] | EC50 of CDC on Daudi cells, 20% normal human serum [4] [µg/mL] | EC50 of CDC on Raji cells, 20% normal human serum [4] [µg/mL] | pKd [5] | pKd [6] | pKd [7] | pKd [8] | pKd [9] | pKd [10] | pKd [11] | pKd [12]
1 | IgG1-7D8-H433R (antibody) | 8.52 | 8.75 | 8.24 | 0.16 | 0.33 | 1.42 | 9.14 | 8.52 | 8.80 |  |  |  |  | 
2 | IgG1-7D8-H433D (antibody) |  |  |  | > 30 | 4.73 | > 30 |  |  |  | 5.91 | 5.57 | 5.71 | 5.71 | 
3 | IgG1-7D8-Y436C (antibody) |  |  |  |  | 1.9 | 11.9 |  |  |  |  | 6.89 | 5.89 | 5.89 | 5.62
